According to patent US20250340608A1 (PROTAGONIST THERAPEUTICS, published 2025):
Numbered stars: 1 amine (or outer) side, 2 acyl side, 3 side chain; on linkers, the order of the positions; unused ones are H or OH. Square brackets hold non-standard residues; d marks the D form. Primed or numbered codes have the meaning given here. Ends that are not written are not given here. * marks the point of attachment. Ida = iminodiacetic acid, O=C(CN(CC(=O)[*:3])[*:1])[*:2]; PEG8′ = PEG8 conjugated to the Lys side chain; Palmitoyl = CCCCCCCCCCCCCCCC(=O)*; β3hP = O=C(O)C[C@@H]1CCCN1; Isovaleryl = CC(C)CC(=O)*; PEG11′ = not defined here; Isobutyryl = CC(C)C(=O)*; Octanoyl = CCCCCCCC(=O)*

B1: Compound 87 (peptide)
peptide: H-DTHFPCIIFGPRARGWVCK-NH2
modifications: not fully specified (bridges); printed as Hy-DTHFPCIIFGPRARGWVCK-NH2; cysteine pairing not given here
B2: Compound 103 (peptide)
peptide: H-EDTHFPCIIFGPRSKGWVCK-NH2
modifications: not fully specified (bridges); printed as Hy-EDTHFPCIIFGPRSKGWVCK-NH2; cysteine pairing not given here
B3: Compound 85 (peptide)
peptide: H-DTHFPCIYFGPRSKGWVCK-NH2
modifications: not fully specified (bridges); printed as Hy-DTHFPCIYFGPRSKGWVCK-NH2; cysteine pairing not given here
B4: Compound 89 (peptide)
peptide: {Palmitoyl-PEG11′}-DTHFPCIIFGPRSRGWVCK-NH2
modifications: not fully specified (bridges); printed as Palm-PEG11-DTHFPCIIFGPRSRGWVCK-NH2; cysteine pairing not given here
B5: Compound 101 (peptide)
peptide: H-DTHFPCISFGPRSKGWVCK-NH2
modifications: not fully specified (bridges); printed as Hy-DTHFPCISFGPRSKGWVCK-NH2; cysteine pairing not given here
B6: Compound 86 (peptide)
peptide: H-DTHFPCIIFGPRSKGWVCK-NH2
modifications: not fully specified (bridges); printed as Hy-DTHFPCIIFGPRSKGWVCK-NH2; cysteine pairing not given here
B7: Compound 79 (peptide)
peptide: H-DTHF[β3hP]CIIFGPRSRGWVCK-NH2
modifications: not fully specified (bridges); printed as Hy-DTHF[bh-Pro]-CIIFGPRSRGWVCK-NH2; cysteine pairing not given here
B8: Compound 110 (peptide)
peptide: [Ida]THFPCIIFGPRSRGWVCK-NH2
modifications: not fully specified (bridges); printed as [Ida]-THFPCIIFGPRSRGWVCK-NH2; cysteine pairing not given here
B9: Compound 102 (peptide)
peptide: H-DTHFPCIKFGPRSKGWVCK-NH2
modifications: not fully specified (bridges); printed as Hy-DTHFPCIKFGPRSKGWVCK-NH2; cysteine pairing not given here
B10: Compound 84 (peptide)
peptide: H-DTHFPCIIFGPRSRGVCK-NH2
modifications: not fully specified (bridges); printed as Hy-DTHFPCIIFGPRSRGVCK-NH2; cysteine pairing not given here

target: T1, human ferroportin (SLC40A1) fused in frame with GFP, stably expressed in HEK293 cells (human, UniProt Q9NP59 1-571); assay: cell-based or functional assay
T1 sequence (looked up): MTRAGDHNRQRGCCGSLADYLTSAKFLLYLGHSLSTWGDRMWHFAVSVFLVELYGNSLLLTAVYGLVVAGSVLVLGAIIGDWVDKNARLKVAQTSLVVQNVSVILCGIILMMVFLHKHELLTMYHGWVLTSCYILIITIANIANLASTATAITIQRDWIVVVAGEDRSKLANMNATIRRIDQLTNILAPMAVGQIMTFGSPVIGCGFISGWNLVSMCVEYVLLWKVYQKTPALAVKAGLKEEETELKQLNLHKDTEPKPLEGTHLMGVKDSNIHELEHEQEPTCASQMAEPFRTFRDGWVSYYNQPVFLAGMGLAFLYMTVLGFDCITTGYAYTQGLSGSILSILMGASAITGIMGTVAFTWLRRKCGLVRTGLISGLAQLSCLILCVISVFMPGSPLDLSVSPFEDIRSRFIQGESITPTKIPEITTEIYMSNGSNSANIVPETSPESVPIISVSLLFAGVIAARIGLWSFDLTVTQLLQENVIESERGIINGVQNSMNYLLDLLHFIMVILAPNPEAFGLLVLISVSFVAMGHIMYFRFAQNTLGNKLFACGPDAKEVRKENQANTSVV

| Binder | Potency EC50 (nM) | Potency EC50 [nM] |
| --- | --- | --- |
| Octanoyl-DTHFPCIIFGPRSRGWVCK-NH2 (not fully specified (bridges); cysteine pairing not given here) [Compound 88] | > 1000 |  |
| H-DTHFPCISFGPRSKGWVCM-NH2 (cysteine pairing not given here) [Compound 135] |  | 545 |
| Isovaleryl-DTKFPCIIFGPRSKGWVCK-NH2 (cysteine pairing not given here) [Compound 147] |  | 20 |
| B1 | > 1000 |  |
| B2 | > 1000 |  |
| Isovaleryl-DTHFKCIEFGPRSKGWVCK-NH2 (cysteine pairing not given here) [Compound 140] | > 1000 |  |
| H-DTHFPCIIFGPRSRGWRCK-NH2 (cysteine pairing not given here) [Compound 80] | > 1000 |  |
| B3 |  | 705 |
| B4 | > 1000 |  |
| H-DTHFPCIIFGPRSRGWVCK-NH2 (cysteine pairing not given here) [Compound 83] | > 1000 |  |
| H-EDTHFPCIIFGPRSKGWVCM-NH2 (cysteine pairing not given here) [Compound 137] |  | 873 |
| Isovaleryl-DTHFPCIIFGPRSKGVC-NH2 (not fully specified (bridges); cysteine pairing not given here) [Compound 114] |  | 18 |
| Isovaleryl-DTHFPCIIFEPRSKGWVCKKKK-NH2 (cysteine pairing not given here) [Compound 144] |  | 15 |
| DTHFPCIKFKPRSKGWVCK (N-terminal isovaleric acid; PEG8 on side chain of Lys 10; C-terminal amide) [Compound 150] |  | 7 |
| Isovaleryl-DTHFPCIKFGPKSKGWVCK-NH2 (not fully specified (bridges); cysteine pairing not given here) [Compound 112] |  | 15 |
| H-DTHFPCIKFGPRSKGWVCM-NH2 (cysteine pairing not given here) [Compound 136] |  | 669 |
| H-DTHFPCIRFGPRSRGWVCK-NH2 (cysteine pairing not given here) [Compound 81] | > 1000 |  |
| B5 | > 1000 |  |
| {Octanoic acid-PEG11′}-DTHFPCIIFGPRSRGWVCK-NH2 (not fully specified (bridges); cysteine pairing not given here) [Compound 108] | > 1000 |  |

| Binder | Potency EC50 (nM) | Potency EC50 [nM] |
| --- | --- | --- |
| Isovaleryl-HFPCIIFGPRSKGWVCM-NH2 (cysteine pairing not given here) [Compound 134] | > 1000 |  |
| H-DTHFPCIRFGPRSRGWRCK-NH2 (cysteine pairing not given here) [Compound 82] | > 1000 |  |
| Isovaleryl-DTHFPCIKFGPRSKGWTCK-NH2 (cysteine pairing not given here) [Compound 154] |  | 18 |
| H-THFPCIIFGPRSKGWVCM-NH2 (cysteine pairing not given here) [Compound 132] | > 1000 |  |
| Isovaleryl-DTHFPCIIFEPRSKGWVCK-NH2 (cysteine pairing not given here) [Compound 142] |  | 9 |
| Isovaleryl-DTHFPCIIFGPRSKGWCK-NH2 (not fully specified (bridges); cysteine pairing not given here) [Compound 113] |  | 15 |
| Isovaleryl-DTHFSCIIFGPRSKGWVCK-NH2 (not fully specified (bridges); cysteine pairing not given here) [Compound 107] |  | 50 |
| B6 | > 1000 |  |
| {Isobutyryl-PEG11′}-DTHFPCIIFGPRSRGWVCK-NH2 (not fully specified (bridges); cysteine pairing not given here) [Compound 109] | > 1000 |  |
| B7 | > 1000 |  |
| Isovaleryl-DTHFPCIIFGPRSKGWVCKK-NH2 (cysteine pairing not given here) [Compound 145] |  | 9 |
| Isovaleryl-DTHFPCIK(PEG8′)FGPRSKGWVCK-NH2 (cysteine pairing not given here) [Compound 149] |  | 9 |
| B8 |  | > 300 |
| H-HFPCIIFGPRSKGWVCM-NH2 (cysteine pairing not given here) [Compound 133] | > 1000 |  |
| B9 | > 1000 |  |
| Isovaleryl-DTHFPCIKFGPRSKGWVCK(PEG8′)-NH2 (cysteine pairing not given here) [Compound 153] |  | 18 |
| Isovaleryl-DTHFPCIIFEPRSKGWVCK-NH2 (not fully specified (bridges); cysteine pairing not given here) [Compound 105] |  | 10 |
| B10 | > 1000 |  |
